This series relates to c-Myc, P01106-1. Briefly: competition. Particulars: 2'-OMe; 50 uM pool vs myc PS site; FIG. 5 labels this pool SEQ ID NO:33.
c-Myc, P01106-1, sequence (P01106 16-454): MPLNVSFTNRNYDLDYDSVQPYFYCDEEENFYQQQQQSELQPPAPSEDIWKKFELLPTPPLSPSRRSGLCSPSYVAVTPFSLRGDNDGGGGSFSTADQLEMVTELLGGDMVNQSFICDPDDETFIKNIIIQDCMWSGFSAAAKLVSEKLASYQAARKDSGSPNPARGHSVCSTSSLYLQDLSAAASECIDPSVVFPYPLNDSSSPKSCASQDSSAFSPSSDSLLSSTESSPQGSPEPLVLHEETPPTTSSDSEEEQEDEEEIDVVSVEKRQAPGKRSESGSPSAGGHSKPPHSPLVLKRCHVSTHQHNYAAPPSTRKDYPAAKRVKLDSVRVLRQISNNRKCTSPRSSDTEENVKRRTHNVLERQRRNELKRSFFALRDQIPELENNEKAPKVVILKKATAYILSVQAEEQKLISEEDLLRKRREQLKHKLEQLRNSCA

Regarding GCGNNNCNNNNNNCGC [2'-OMe pool X=C], the binding signal turned out to be 50 % inhibition.

The values are drawn from patent US5747253.
